From paper PMC5524822

Molecular target: HIV-1 Env of virus AT1 with the I371V mutation (HIV-1)

For VRC01 (antibody), the IC50 of neutralisation of the virus in TZM-bl cells (luciferase reporter) was 0.0724 µg/mL.
